What was measured:
[1] = biological target: phycobilisome-GAM conjugate (glutaraldehyde-stabilized P. cruentum phycobilisomes conjugated to affinity-purified, Fc-specific goat anti-mouse IgG); assay: microtiter displacement of conjugate prebound to RIgG-coated wells (competitor RIgG); MIgG 1,000 ng/test
[2] = biological target: phycobilisome-GAM conjugate (glutaraldehyde-stabilized P. cruentum phycobilisomes conjugated to affinity-purified, Fc-specific goat anti-mouse IgG); assay: microtiter displacement of conjugate prebound to RIgG-coated wells (competitor RIgG); MIgG 100 ng/test
[3] = biological target: phycobilisome-GAM conjugate (glutaraldehyde-stabilized P. cruentum phycobilisomes conjugated to affinity-purified, Fc-specific goat anti-mouse IgG); assay: displacement of conjugate prebound to BIOMAG-RIgG (competitor RIgG); MIgG 1 ng/test
[4] = biological target: phycobilisome-GAM conjugate (glutaraldehyde-stabilized P. cruentum phycobilisomes conjugated to affinity-purified, Fc-specific goat anti-mouse IgG); assay: microtiter displacement of conjugate prebound to RIgG-coated wells (competitor RIgG); MIgG 10 ng/test
[5] = biological target: phycobilisome-GAM conjugate (glutaraldehyde-stabilized P. cruentum phycobilisomes conjugated to affinity-purified, Fc-specific goat anti-mouse IgG); assay: microtiter displacement of conjugate prebound to RIgG-coated wells (competitor RIgG); MIgG 1 ng/test
[6] = biological target: phycobilisome-GAM conjugate (glutaraldehyde-stabilized P. cruentum phycobilisomes conjugated to affinity-purified, Fc-specific goat anti-mouse IgG); assay: displacement of conjugate prebound to BIOMAG-RIgG (competitor RIgG); MIgG 10,000 ng/test
[7] = biological target: phycobilisome-GAM conjugate (glutaraldehyde-stabilized P. cruentum phycobilisomes conjugated to affinity-purified, Fc-specific goat anti-mouse IgG); assay: displacement of conjugate prebound to BIOMAG-RIgG (competitor RIgG); MIgG 10 ng/test
[8] = biological target: phycobilisome-GAM conjugate (glutaraldehyde-stabilized P. cruentum phycobilisomes conjugated to affinity-purified, Fc-specific goat anti-mouse IgG); assay: displacement of conjugate prebound to BIOMAG-RIgG (competitor RIgG); MIgG 100 ng/test
[9] = biological target: phycobilisome-GAM conjugate (glutaraldehyde-stabilized P. cruentum phycobilisomes conjugated to affinity-purified, Fc-specific goat anti-mouse IgG); assay: displacement of conjugate prebound to BIOMAG-RIgG (competitor RIgG); MIgG 1,000 ng/test
[10] = biological target: mouse immunoglobulin (MIgG); assay: photometric; PB-GAM 40 ug/test, BIOMAG-MIgG 30 ug/test
[11] = biological target: mouse immunoglobulin (MIgG); assay: competitive fluoroimmunoassay; 250 ng conjugate, 250 ug BIOMAG-MIgG per test; soluble MIgG 100 ng/test
[12] = biological target: mouse immunoglobulin (MIgG); assay: photometric; PB-GAM 3 ug/test, soluble MIgG 10 ug/test, BIOMAG-MIgG 30 ug/test
[13] = biological target: mouse immunoglobulin (MIgG); assay: photometric; PB-GAM 3 ug/test, BIOMAG-MIgG 300 ug/test
rabbit IgG (RIgG) [14] = assay: displacement assay; conjugate prebound to BIOMAG-RIgG; MIgG 0 ng/test (baseline)
[15] = biological target: mouse immunoglobulin (MIgG); assay: photometric; PB-GAM 40 ug/test, soluble MIgG 0, BIOMAG-MIgG 300 ug/test
[16] = biological target: mouse immunoglobulin (MIgG); assay: 50 ul conjugate (80 ug/ml) + BIOMAG-MIgG 1 mg/test; soluble MIgG 1 ng/test
[17] = biological target: mouse immunoglobulin (MIgG); assay: competitive fluoroimmunoassay; 250 ng conjugate, 250 ug BIOMAG-MIgG per test; soluble MIgG 1,000 ng/test
[18] = biological target: mouse immunoglobulin (MIgG); assay: photometric; PB-GAM 12 ug/test, soluble MIgG 0, BIOMAG-MIgG 30 ug/test
[19] = biological target: mouse immunoglobulin (MIgG); assay: photometric; PB-GAM 3 ug/test, BIOMAG-MIgG 100 ug/test
[20] = biological target: mouse immunoglobulin (MIgG); assay: photometric; PB-GAM 12 ug/test, soluble MIgG 10 ug/test, BIOMAG-MIgG 100 ug/test
[21] = biological target: mouse immunoglobulin (MIgG); assay: 50 ul conjugate (80 ug/ml) + BIOMAG-MIgG 1 mg/test; soluble MIgG 0
[22] = biological target: mouse immunoglobulin (MIgG); assay: photometric; PB-GAM 40 ug/test, soluble MIgG 0, BIOMAG-MIgG 30 ug/test
[23] = biological target: mouse immunoglobulin (MIgG); assay: photometric; PB-GAM 40 ug/test, soluble MIgG 10 ug/test, BIOMAG-MIgG 30 ug/test
[24] = biological target: mouse immunoglobulin (MIgG); assay: photometric; PB-GAM 40 ug/test, soluble MIgG 10 ug/test, BIOMAG-MIgG 300 ug/test
[25] = biological target: mouse immunoglobulin (MIgG); assay: photometric; PB-GAM 3 ug/test, soluble MIgG 0, BIOMAG-MIgG 30 ug/test
[26] = biological target: mouse immunoglobulin (MIgG); assay: photometric; PB-GAM 12 ug/test, soluble MIgG 10 ug/test, BIOMAG-MIgG 300 ug/test
[27] = biological target: mouse immunoglobulin (MIgG); assay: photometric; PB-GAM 40 ug/test, soluble MIgG 10 ug/test, BIOMAG-MIgG 100 ug/test
[28] = biological target: mouse immunoglobulin (MIgG); assay: photometric; PB-GAM 3 ug/test, BIOMAG-MIgG 30 ug/test
[29] = biological target: mouse immunoglobulin (MIgG); assay: photometric; PB-GAM 40 ug/test, soluble MIgG 0, BIOMAG-MIgG 100 ug/test
[30] = biological target: mouse immunoglobulin (MIgG); assay: photometric; PB-GAM 12 ug/test, BIOMAG-MIgG 100 ug/test
[31] = biological target: mouse immunoglobulin (MIgG); assay: photometric; PB-GAM 3 ug/test, soluble MIgG 10 ug/test, BIOMAG-MIgG 100 ug/test
rabbit IgG (RIgG) [32] = assay: microtiter displacement assay; conjugate prebound to RIgG-coated wells; MIgG 0 ng/test (baseline)
[33] = biological target: mouse immunoglobulin (MIgG); assay: photometric; PB-GAM 3 ug/test, soluble MIgG 0, BIOMAG-MIgG 300 ug/test
[34] = biological target: mouse immunoglobulin (MIgG); assay: photometric; PB-GAM 40 ug/test, BIOMAG-MIgG 300 ug/test
[35] = biological target: mouse immunoglobulin (MIgG); assay: binding to BIOMAG-MIgG, solid phase in pseudo-excess; fluorescence
[36] = biological target: mouse immunoglobulin (MIgG); assay: photometric; PB-GAM 12 ug/test, soluble MIgG 0, BIOMAG-MIgG 100 ug/test
[37] = biological target: mouse immunoglobulin (MIgG); assay: photometric; PB-GAM 12 ug/test, soluble MIgG 0, BIOMAG-MIgG 300 ug/test
[38] = biological target: mouse immunoglobulin (MIgG); assay: photometric; PB-GAM 12 ug/test, soluble MIgG 10 ug/test, BIOMAG-MIgG 30 ug/test
[39] = biological target: mouse immunoglobulin (MIgG); assay: competitive fluoroimmunoassay; 250 ng conjugate, 250 ug BIOMAG-MIgG per test; soluble MIgG 1 ng/test
[40] = biological target: mouse immunoglobulin (MIgG); assay: photometric; PB-GAM 12 ug/test, BIOMAG-MIgG 300 ug/test
[41] = biological target: mouse immunoglobulin (MIgG); assay: 50 ul conjugate (80 ug/ml) + BIOMAG-MIgG 1 mg/test; soluble MIgG 10 ug/test
[42] = biological target: mouse immunoglobulin (MIgG); assay: photometric; PB-GAM 40 ug/test, BIOMAG-MIgG 100 ug/test
[43] = biological target: mouse immunoglobulin (MIgG); assay: photometric; PB-GAM 3 ug/test, soluble MIgG 0, BIOMAG-MIgG 100 ug/test
[44] = biological target: mouse immunoglobulin (MIgG); assay: photometric; PB-GAM 12 ug/test, BIOMAG-MIgG 30 ug/test
[45] = biological target: mouse immunoglobulin (MIgG); assay: competitive fluoroimmunoassay; 250 ng conjugate, 250 ug BIOMAG-MIgG per test; soluble MIgG 10 ng/test
[46] = biological target: mouse immunoglobulin (MIgG); assay: competitive fluoroimmunoassay; 250 ng conjugate, 250 ug BIOMAG-MIgG per test; soluble MIgG 0
[47] = biological target: mouse immunoglobulin (MIgG); assay: photometric; PB-GAM 3 ug/test, soluble MIgG 10 ug/test, BIOMAG-MIgG 300 ug/test

Substance: mouse immunoglobulin (MIgG) (antibody)
- % of maximal displacement [1]: 100%
- E666 (fluorescence) [1]: 528000 cps
- displacement [1]: 185000 cps
- % of maximal displacement [2]: 98.4%
- E666 (fluorescence) [2]: 525000 cps
- displacement [2]: 182000 cps
- % of maximal displacement [3]: 6.1%
- E666 (supernatant fluorescence) [3]: 1.07e+06 cps
- displacement [3]: 19000 cps
- % of maximal displacement [4]: 73%
- E666 (fluorescence) [4]: 478000 cps
- displacement [4]: 135000 cps
- % of maximal displacement [5]: 36.8%
- E666 (fluorescence) [5]: 411000 cps
- displacement [5]: 68000 cps
- % of maximal displacement [6]: 100%
- E666 (supernatant fluorescence) [6]: 1.36e+06 cps
- displacement [6]: 309000 cps
- % of maximal displacement [7]: 10.4%
- E666 (supernatant fluorescence) [7]: 1.08e+06 cps
- displacement [7]: 32000 cps
- % of maximal displacement [8]: 35.3%
- E666 (supernatant fluorescence) [8]: 1.16e+06 cps
- displacement [8]: 109000 cps
- % of maximal displacement [9]: 62.5%
- E666 (supernatant fluorescence) [9]: 1.25e+06 cps
- displacement [9]: 193000 cps

Substance: phycobilisome-GAM conjugate (glutaraldehyde-stabilized P. cruentum phycobilisomes conjugated to affinity-purified, Fc-specific goat anti-mouse IgG) (antibody)
- % binding [10]: 0%
- % bound [11]: 0.8%
- E666 [11]: 490000 cps
- inhibition [11]: 116000 cps
- Supernatant Absorbance [12]: 12 mAU/ml
- % binding [13]: 66.7%
- E666 (supernatant fluorescence) (rabbit IgG (RIgG) [14]): 1.05e+06 cps
- Supernatant Absorbance [15]: 173 mAU/ml
- % bound [16]: 28%
- MIgG inhibition [16]: 547000 cps
- Supernatant E666 [16]: 2.79e+06 cps
- % bound [17]: 0%
- E666 [17]: 494000 cps
- inhibition [17]: 120000 cps
- Supernatant Absorbance [18]: 63 mAU/ml
- % binding [19]: 16.7%
- Supernatant Absorbance [20]: 68 mAU/ml
- % bound [21]: 42.1%
- Supernatant E666 [21]: 2.24e+06 cps
- Supernatant Absorbance [22]: 210 mAU/ml
- Supernatant Absorbance [23]: 210 mAU/ml
- Supernatant Absorbance [24]: 213 mAU/ml
- Supernatant Absorbance [25]: 12 mAU/ml
- Supernatant Absorbance [26]: 66 mAU/ml
- Supernatant Absorbance [27]: 212 mAU/ml
- % binding [28]: 0%
- Supernatant Absorbance [29]: 200 mAU/ml
- % binding [30]: 20.6%
- Supernatant Absorbance [31]: 12 mAU/ml
- E666 (fluorescence) (rabbit IgG (RIgG) [32]): 343000 cps
- Supernatant Absorbance [33]: 4 mAU/ml
- % binding [34]: 18.8%
- % specific binding [35]: < 60%
- Supernatant Absorbance [36]: 54 mAU/ml
- Supernatant Absorbance [37]: 44 mAU/ml
- Supernatant Absorbance [38]: 66 mAU/ml
- % bound [39]: 19%
- E666 [39]: 400000 cps
- inhibition [39]: 26000 cps
- % binding [40]: 33.3%
- % bound [41]: 0%
- MIgG inhibition [41]: 1.63e+06 cps
- Supernatant E666 [41]: 3.88e+06 cps
- % binding [42]: 4.7%
- Supernatant Absorbance [43]: 10 mAU/ml
- % binding [44]: 4.5%
- % bound [45]: 11.1%
- E666 [45]: 439000 cps
- inhibition [45]: 65000 cps
- % bound [46]: 24.3%
- E666 [46]: 374000 cps
- Supernatant Absorbance [47]: 12 mAU/ml

Source: US20030134325A1
